Holding throughout (assay): co-IP; 293T cells co-transfected with 1 µg Vpu-cmyc variant and 2 µg HA-tetherin; lysis in 50 mM Tris-HCl pH 7.4, 150 mM NaCl, 1% Triton X-100, 1% CHAPS; IP with anti-myc antibody and protein G agarose at 4°C; blot with anti-HA; tetherin quantified by densitometry, normalized by tubulin, Vpu WT = 100%
For assay [1], the target named is Vpu TM CΔ2I (HIV-1 NL4-3).
Assay [2] deals with Vpu TM M3IT (HIV-1 NL4-3).
The target in assay [3] is Vpu TM M3IV (HIV-1 NL4-3).
Assay [4] concerns the target Vpu TM NΔ2I (HIV-1 NL4-3).

Chain of HA-tetherin (Q10589 1-161): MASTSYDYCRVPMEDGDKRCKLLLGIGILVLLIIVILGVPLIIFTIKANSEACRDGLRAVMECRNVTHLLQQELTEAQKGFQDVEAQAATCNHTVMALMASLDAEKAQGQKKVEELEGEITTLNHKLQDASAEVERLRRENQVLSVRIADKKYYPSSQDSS

With “HA-tetherin (from UniProt Q10589 1-161) (natural protein)”, the percent of tetherin bound relative to Vpu WT (100%) was 25% in assay [1], 10% in assay [2], above 80% in assay [3] and 50% in assay [4].

The values are drawn from article PMC3107245.
